Patent US20250154240A1, “ANTI-HUMAN CXCL1 ANTIBODY” (CHIOME BIOSCIENCE INC., priority 2022, published 2025)
Positions count from the first letter of the chain named.

B1: 028-8-12: human antibody against CXCL1 from the human ADLib technique; VH SEQ ID NO: 25, VL SEQ ID NO: 29 (antibody, listed as Gallus gallus, V domains shown)
VH: EVQLLESGGGLVQPGGSLRLSCAASGFTFSELSMSWVRQAPGKGLEWVSAISGSGGSTYYADSVKGRFTISRDNSKNTLYLQMNSLRAEDTAVYYCAREGGRLEPYYYYYAMDVWGQGTPVTVSS
VL: DIQMTQSPSSLSASVGDRVTITCRASQSISDNLHWYQQKPGKAPKLLIYDASNLESGVPSRFSGSGSGTDFTLTINSLQPEDFATYYCQQYYSTPLTFGQGTKLEIK
B2: 1A-7H10: mouse monoclonal anti-HuCXCL1 antibody clone; VH SEQ ID NO: 1, VL SEQ ID NO: 5 (antibody, listed as Mus musculus, V domains shown)
VH: QVQLKESGPVLVAPSQSLSITCSVSGFSSTTYGVHWVRQPPGQGLEWLGVIWAGGSTNYNSALMSRLSISKDNSKSQVFLKMNSLQTDDTAMYYCATQYHYPFAYWGQGTLVTVSA
VL: NIVMTQSPKSMSMSVGERVTLSCKASENVGIYVSWYQQKPEQSPKLMIYGASNRNTGVPDRFTGSGSATDFTLTISSVQAEDLADYYCGQSYSYPLTFGAGTKLELK
B3: 5A-5E11: mouse monoclonal anti-HuCXCL1 antibody clone; VH SEQ ID NO: 17, VL SEQ ID NO: 21 (antibody, listed as Mus musculus, V domains shown)
VH: QVQLQQSGAELVRPGSSVKISCKASGYAFSDYWMNWVKQRPGQGLEWIGQIYPGDGDTNYNGKFKGKGTLTADKSSSTAYMQLNSLTSEDSAVYFCARERDYDVAMDYWGQGTSVTVSS
VL: DIQMTQSPSSLSASLGGKVTITCKASQDINKYIAWFQHKPGKGPRLVIHYTSILQPGIPSRFSGVGSGRDYSFSIRNLEPEDIATYYCLQYDNLPWTFGGGTKLEIK
B4: 4A-2F7: mouse monoclonal anti-HuCXCL1 antibody clone; VH SEQ ID NO: 9, VL SEQ ID NO: 13 (antibody, listed as Mus musculus, V domains shown)
VH: QVTLKESGPGILKPSQTLSLTCSFSGFSLSTSGMGVDWIRQPSGKGLEWLAHIWWDDDKYYNPSLKSQLTISKDTSRNQVFLKITSVDTADTATYYCARSYGYDMDYYAMDYWGQGTSVTVSS
VL: DIQMTQSPSSLSASLGERVSLTCRASQEISGYLSWLQQKPDGTIKRLIYAASTLDSGVPKRFSGSRSGSDYSLTISSLESEDFADYYCLQYASYPPWTFGGGTKLEIK
B5: Hu5A-5E11: humanized antibody VH1/VL1; VH SEQ ID NO: 76, VL SEQ ID NO: 78 (antibody, V domains shown)
VH: QVQLVQSGAEVKKPGSSVKVSCKASGYAFSDYWMNWVRQAPGQGLEWIGQIYPGSGDTNYNAKFKGKGTITADKSTSTAYMELSSLRSEDTAVYYCARERDYDVAMDYWGQGTTVTVSS
VL: DIQMTQSPSSLSASVGDRVTITCKASQDINKYIAWFQQKPGKAPKLVIHYTSILQPGVPSRFSGSGSGTDYTFTISSLQPEDIATYYCLQYDNLPWTFGGGTKVEIK

The molecules below were run on CyCXCL1 (assay: Ca2+ Flux assay, CyCXCL1 neutralizing activity in AequoScreen/CXCR2 cells). Details: CyCXCL1 100 ng per ml; antibody 10 μg per ml.
CyCXCL1, sequence (as listed by the source): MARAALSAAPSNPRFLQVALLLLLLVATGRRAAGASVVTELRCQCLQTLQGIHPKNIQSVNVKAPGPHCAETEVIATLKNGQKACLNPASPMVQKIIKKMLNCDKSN
CyCXCL1, sequence (P25025 whole entry partner): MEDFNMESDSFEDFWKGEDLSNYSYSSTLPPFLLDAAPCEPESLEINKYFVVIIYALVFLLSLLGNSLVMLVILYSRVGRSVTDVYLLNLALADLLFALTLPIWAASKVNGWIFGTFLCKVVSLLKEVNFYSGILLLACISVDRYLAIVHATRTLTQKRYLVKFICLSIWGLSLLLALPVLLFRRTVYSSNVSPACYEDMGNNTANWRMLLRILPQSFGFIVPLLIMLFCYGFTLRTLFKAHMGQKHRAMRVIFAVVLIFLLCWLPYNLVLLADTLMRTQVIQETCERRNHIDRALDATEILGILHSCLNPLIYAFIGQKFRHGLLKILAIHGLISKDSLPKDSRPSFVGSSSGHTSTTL
Type: cell-based, cynomolgus monkey
Procedure: For evaluation of neutralizing activity against CyCXCL1, CyCXCL1-induced changes in intracellular calcium ions in AequoScrenn/CXCR2 cells were measured as the luminescence intensity of aequorin.
AequoScrenn/CXCR2 cells were adjusted in the same manner as shown in [2-2] above. After CyCXCL1 was added to 96-well plates in an amount of 100 ng per ml, purified antibodies were each added in an amount of 10 μg per ml, and the plates were allowed to stand at room temperature for 30 minutes. To these plates, the AequoScree/CXCR2 cell suspension was added in a volume of 50 μL per well, immediately followed by measurement of luminescence intensity.
An antibody found to completely suppress CyCXCL1-induced luminescence from aequorin was determined to have cross-reactivity and indicated with “o” while an antibody found to not completely suppress luminescence from aequorin was indicated with “x” in Table A above.

Row | Molecule | CyCXCL1 neutralizing activity Ca^2+ Flux assay
1 | B1 | ∘
2 | B2 | ∘
3 | B3 | ∘
4 | B4 | ∘

Each molecule was assayed against T1, HuCXCL1 (Homo sapiens, UniProt P09341) (assay: HuCXCL1 binding activity, antigen-immobilized ELISA). Details: HuCXCL1 immobilized at 3 μg/mL.
T1 construct: made in house; host or cells: Expi293 expression system (transient), protein from the culture supernatant
T1 sequence (P09341 35-107): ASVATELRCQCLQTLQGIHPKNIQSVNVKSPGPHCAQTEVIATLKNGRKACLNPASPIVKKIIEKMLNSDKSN
Procedure: Antibodies produced from the hybridomas were evaluated for their HuCXCL1 binding activity by ELISA assay using plates on which the antigen (HuCXCL1 protein) used for immunization had been directly immobilized.
To 96-well plates, phosphate-buffered saline (PBS) containing 3 μg/mL of HuCXCL1 was added in a volume of 50 μL per well, and the plates were allowed to stand overnight at 4° C. After removal of the antigen solution, PBS containing 2% skimmed milk and 0.05% Tween-20 (hereinafter referred to as the blocking solution) was added to each well for blocking reaction, and the plates were allowed to stand at room temperature for 1 hour. After removal of the blocking solution, the culture supernatants of the hybridomas or DT40 were each added in a volume of 50 µL per well and reacted at room temperature for 1 hour. After removal of the culture supernatants and washing with PBS containing 0.05% Tween-20, an HRP-labeled secondary antibody diluted with the blocking solution was added and reacted at room temperature for 1 hour. After washing, TMB (Dako) was added as a chromogenic substrate solution to cause color development, and after 10 minutes, 1 N sulfuric acid was added to stop the reaction, followed by measurement of absorbance at 450 nm.

Row | Molecule | Binding activity to HuCXCL1 ELISA
5 | B1 | ∘
6 | B2 | ∘
7 | B3 | ∘
8 | B4 | ∘

These molecules were tested against T2, human CXCL2 (Homo sapiens, UniProt P19875) (assay: Binding to human CXCL2). Details: not given.
T2 sequence (P19875 35-107): T1 sequence (P09341 35-107) with S2P, V3L, P20L, N27K, R48Q, I58M, N68K, S69N, D70G

Row | Molecule | Binding to human CXCL2
9 | B1 | also bind
10 | B2 | also bind
11 | B3 | also bind
12 | B4 | also bind

These molecules were tested on CXCR2-expressing cells (assay: In vivo migration inhibitory activity test on CXCR2-expressing cells, OCUM-12 orthotopic transplantation (prevention model)). Details: 400 μg/head intraperitoneally twice a week, 3 weeks; compared to hIgG1 antibody.
Design: species or system mouse
Description: (§1) The stomachs after measurement of the tumor size in [3-1] above were excised and fixed overnight at room temperature with a 10% neutral buffered formalin solution (Wako Pure Chemical Industries, Ltd., Japan), followed by replacement with PBS. Then, paraffin embedding and section preparation were outsourced to Applied Medical Research Laboratory, Japan. The prepared gastric tumor sections were immunohistologically stained with an anti-CXCR2 antibody to evaluate in vivo CXCR2 cell migration inhibitory activity. The sections were deparaffinized and rehydrated, and then treated to inactivate endogenous peroxidase. After antigen activation treatment, the sections were blocked with PBS containing 2% skimmed milk and 0.1% Tween-20, and reacted overnight at 4° C. with an anti-CXCR2 antibody (Biorbyt) as a primary antibody, which had been diluted to 0.3 μg/mL with the blocking solution. After washing with PBS containing 0.1% Tween-20, the sections were reacted at room temperature for 1 hour with an HRP-labeled goat anti-rabbit IgG antibody (Abcam) as a secondary antibody. After washing with a washing solution, a simple stain DAB solution (5052, Nichirei Corporation, Japan) was used to cause color development. After images of the stained tissues were captured with an Explore (Olympus Corporation, Japan), imaging software CellSens (Olympus Corporation, Japan) was used to calculate CXCR2-positive cells per unit area.
Navarixin is among small molecular compounds that act on CXCR2 and inhibit CXCL1-CXCR2 signaling. […] Then, using a model with OCUM-12 orthotopic transplantation, the migration inhibition of CXCR2-expressing cells and antitumor activity were evaluated in vivo for Navarixin. As a vehicle, ultrapure water containing 20% 2-hydroxypropyl-β-cyclodextrin (FUJIFILM Wako Pure Chemical Corporation, Japan) was used. Navarixin (MedChemExpress) was dissolved in ultrapure water containing 20% 2-hydroxypropyl-β-cyclodextrin, and orally administered at a dose of 100 mg/kg/day in a schedule of once a day for 5 consecutive days, followed by a 2-day withdrawal.
as §1, with “after measurement were excised” for “after measurement of the tumor size in [3-1] above were excised”, “and 0.1% Tween-20 (hereinafter referred to as the blocking solution), and reacted” for “and 0.1% Tween-20, and reacted”, “been diluted 1667-fold with the” for “been diluted to 0.3 μg/mL with the”, “to calculate positive cells per” for “to calculate CXCR2-positive cells per”
The dose-response relationship between antibody dose and in vivo antitumor activity or CXCR2 migration inhibitory activity was evaluated in a xenograft prevention model with OCUM-12 orthotopic transplantation. A prevention model is a model designed to start antibody administration from the day following tumor transplantation. […]

Row | Molecule | Migration of CXCR2-expressing cells (positive cells per unit area)
13 | B5 | significantly suppress the migration of CXCR2-expressing cells

Same assay, conditions: 20 mg/kg intraperitoneally twice a week, 3 weeks; compared to PBS or mouse IgG1

Row | Molecule | Migration of CXCR2-expressing cells (CXCR2-positive cells per unit area in gastric tumor sections)
14 | B1 | significantly suppress the migration of CXCR2-expressing cells
15 | B2 | significantly suppress the migration of CXCR2-expressing cells
16 | B3 | significantly suppress the migration of CXCR2-expressing cells
17 | B4 | significantly suppress the migration of CXCR2-expressing cells

Same assay, conditions: prevention model

Row | Molecule | Dose at which the migration suppressive effect tended to reach a plateau [μg/head]
18 | B5 | ≥ 60

The molecules below were run against T3, human CXCL3 (Homo sapiens, UniProt P19876) (assay: Binding to human CXCL3). Details: not given.
T3 sequence (P19876 35-107): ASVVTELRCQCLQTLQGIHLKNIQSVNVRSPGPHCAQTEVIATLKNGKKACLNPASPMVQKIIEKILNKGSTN

Row | Molecule | Binding to human CXCL3
19 | B1 | also bind
20 | B2 | also bind
21 | B3 | also bind
22 | B4 | also bind
